For one substance, dwell time results are on record in paper PMC2775897.

This assay addresses axonemes (purified from sea urchin sperm flagella) (sea urchin). In words: single-molecule fluorescence microscopy.

Turning to “DNA-kinesin monomer K336 333C_10 bp (from UniProt P33176 1-336)”, the dwell time is 170 ms.
